Laboratory results from paper doi:10.1101/2022.08.03.502719.

What was measured:
[1] = target: VL9 peptide HLA-E single chain trimer (soluble) (human); test: SPR
[2] = target: WN peptide HLA-E single chain trimer (soluble) (human); test: SPR

Row | Substance | Kd [1] | Kd [2]
1 | CD94/NKG2A single-chain fusion protein (NKG2A ectodomain-GGSGGS-CD94 ectodomain), soluble, for SPR (from UniProt P26715 94-233; Q13241 32-179) (receptor) | 8.2 µM | 41.5 µM
2 | CD94/NKG2C single-chain fusion protein (NKG2C ectodomain-GGSGGS-CD94 ectodomain), soluble, for SPR (from UniProt P26717 94-231; Q13241 32-179) (receptor) | 21.4 µM | 17.4 µM
